± gives the standard deviation of the averaged measurements.
System: Saccharomyces cerevisiae
Assay: protein stability index of tFT-peptide fusion (C-terminal peptide) (PSI (0-1 scale)); higher = more stable (slower turnover)
Conditions: genetic background: cdc34-1; temperature: 37 C
Description: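 MPS profiling in S. cerevisiae of the tFT-X12 degron library: putative degron peptides plus stable controls, 12 aa, fused to the C-terminus of a sfGFP-mCherry timer. Cells are FACS-sorted into 8 mCherry/sfGFP bins and deep-sequenced. PSI runs from 0 (unstable) to 1 (stable). Backgrounds are wild type, das1Δ and doa10Δ at 30 °C, and wild type, das1Δ, cdc34-1 and cdc53-1 at 37 °C; 2-3 technical replicates each.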
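Also: PSI is a weighted mean of sequencing reads over stability bins, variants kept only with over 10 reads, mCherry proximal and sfGFP distal, peptide attached via GGGS linker.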

In order of rising protein stability index:
1. IIGCIAICLMVN  0.0164 ± 0.0065
2. GWCLLRVLVLVW  0.0502 ± 0.035
3. FVGVLVLCVCRC  0.0544 ± 0.0064
4. FSFSCFFFVLFV  0.0608 ± 0.036
5. GCLFASWPLAVC  0.104 ± 0.026
6. GFFCFLYFVVMF  0.148 ± 0.0033
7. GTIFLIRVLLFG  0.154 ± 0.0049
8. GGVVLVVVFCCV  0.165 ± 0.0053
9. FVFIFIRVFFFR  0.174 ± 0.0037
10. GEVLWAVLLVSC  0.1782 ± 0.00065
11. ISTRLALCACVC  0.184 ± 0.027
12. ILCYVWLVFSGF  0.225 ± 0.0092
13. HRLQFKGYPICA  0.243 ± 0.039
14. FVSFFRWLLVSI  0.267 ± 0.016
15. FVLFCWFFCIVW  0.293 ± 0.019
16. GVLTVVLQVGVV  0.299 ± 0.033
17. FTFLFPLRLLPL  0.305 ± 0.051
18. GHFILFWVFCFM  0.316 ± 0.058
19. IFRVTGFPIYIF  0.327 ± 0.045
20. IVVWCGIRYSIR  0.328 ± 0.005
21. GFVVYLLLSYLF  0.34 ± 0.016
22. GLFFLCLLSMCF  0.34 ± 0.012
23. FSCLCLCVATSG  0.348 ± 0.031
24. GFVCFIHLFLCF  0.3496 ± 0.0027
25. GCVGLSFCVWVG  0.382 ± 0.011
26. GFSFFFIFWFFF  0.394 ± 0.014
27. GLCGVVVGCWVR  0.395 ± 0.017
28. IFLCRNGAVFIC  0.398 ± 0.07
29. FVFCGVVFLFLL  0.399 ± 0.033
30. IIAGVWFLEILG  0.4134 ± 0.0039
31. ILAVMFEIYAIL  0.422 ± 0.013
32. FVFLVLGPYAMF  0.444 ± 0.032
33. GQFVISVRFLYE  0.454 ± 0.045
34. FRFYCGLVIANV  0.455 ± 0.016
35. GRVETIEFLFLR  0.455 ± 0.0049
36. IKCVPLVWRLTV  0.457 ± 0.0073
37. GDSVRVIIFCLN  0.465 ± 0.041
38. ICIFWLITGLWL  0.465 ± 0.074
39. FSFSFYFALASF  0.474 ± 0.047
40. GVVCCGFFFLVV  0.475 ± 0.012
41. FYAAILCLLFSC  0.478 ± 0.037
42. GVMICLDLLLSV  0.482 ± 0.011
43. GCSVSLCCVFVV  0.489 ± 0.016
44. IGILVTAVPVFD  0.507 ± 0.057
45. GCFVDRVYVVVV  0.52605 ± 0.00036
46. GGGGLRVVVWLV  0.534 ± 0.032
47. GLSVLLTCIHFV  0.537 ± 0.031
48. GFIRVRHLRSLC  0.55 ± 0.0029
49. GRWAFFTWLRWS  0.553 ± 0.016
50. GSLVLSCLMSRA  0.558 ± 0.04
51. KRLALVSCSICG  0.569 ± 0.03
52. KKKEILVYIIQE  0.598 ± 0.036
53. ISSAGHNIRFLA  0.599 ± 0.052
54. HVCKLAMFQWYF  0.6 ± 0.011
55. HSRRRRPTPQSL  0.609 ± 0.047
56. FSFSAFARFLVI  0.618 ± 0.048
57. KRRKERIKIQQI  0.628 ± 0.037
58. INHVIHAKLRFS  0.629 ± 0.015
59. GGRLGRAGGGGR  0.633 ± 0.026
60. GVARALFLWKAV  0.64 ± 0.032
61. HHRLRQGLRRIN  0.64 ± 0.039
62. HPPPTLVPPHPR  0.64 ± 0.032
63. GCDVWCLVLRMG  0.651 ± 0.016
64. KVGPVLLLCRRS  0.6524 ± 0.00046
65. IKIQPKKRISLI  0.658 ± 0.056
66. FPVSSRSFSFIP  0.66 ± 0.051
67. GRGVRLRVRLLL  0.664 ± 0.023
68. GYRRCCHFLFTL  0.671 ± 0.02
69. GPVRSPPSPTPR  0.674 ± 0.03
70. GLDLLTKFSKEC  0.678 ± 0.049
71. GNRDLVNTSVEG  0.679 ± 0.029
72. GLNKGKYIKLYT  0.68 ± 0.021
73. GSDGVGGTVLYA  0.685 ± 0.061
74. IVRDTECGIFYR  0.689 ± 0.05
75. GHSALWQVPRLM  0.697 ± 0.053
76. GGFHWCPSASRG  0.712 ± 0.01
77. IGFSPSFQLYSA  0.726 ± 0.0078

Same assay, conditions: genetic background: cdc53-1; temperature: 37 C

In order of falling protein stability index:
1. IFLCRNGAVFIC  0.7987 ± 0.0065
2. FPVSSRSFSFIP  0.7594 ± 0.0028
3. GLNKGKYIKLYT  0.756 ± 0.017
4. IGFSPSFQLYSA  0.756 ± 0.012
5. GGFHWCPSASRG  0.755 ± 0.016
6. GSDGVGGTVLYA  0.755 ± 0.014
7. IVRDTECGIFYR  0.75 ± 0.021
8. GPVRSPPSPTPR  0.737 ± 0.0096
9. GYRRCCHFLFTL  0.735 ± 0.035
10. GLDLLTKFSKEC  0.734 ± 0.036
11. GHSALWQVPRLM  0.733 ± 0.014
12. GRGVRLRVRLLL  0.73 ± 0.031
13. HHRLRQGLRRIN  0.7278 ± 0.0055
14. GGRLGRAGGGGR  0.7243 ± 0.0029
15. GNRDLVNTSVEG  0.721 ± 0.011
16. KRRKERIKIQQI  0.715 ± 0.041
17. HVCKLAMFQWYF  0.713 ± 0.031
18. GVARALFLWKAV  0.709 ± 0.018
19. HPPPTLVPPHPR  0.709 ± 0.031
20. GDSVRVIIFCLN  0.707 ± 0.086
21. IKIQPKKRISLI  0.707 ± 0.058
22. FSFSAFARFLVI  0.704 ± 0.02
23. ISSAGHNIRFLA  0.698 ± 0.022
24. GCDVWCLVLRMG  0.68429 ± 0.00024
25. KVGPVLLLCRRS  0.68 ± 0.023
26. INHVIHAKLRFS  0.675 ± 0.082
27. GRWAFFTWLRWS  0.674 ± 0.016
28. GFIRVRHLRSLC  0.658 ± 0.024
29. GLSVLLTCIHFV  0.65 ± 0.042
30. HSRRRRPTPQSL  0.65 ± 0.016
31. GGGGLRVVVWLV  0.647 ± 0.022
32. KRLALVSCSICG  0.6459 ± 0.003
33. KKKEILVYIIQE  0.612 ± 0.024
34. GSLVLSCLMSRA  0.603 ± 0.018
35. HRPRPLLKLLAS  0.596 ± 0.098
36. IKCVPLVWRLTV  0.594 ± 0.045
37. GCFVDRVYVVVV  0.543 ± 0.043
38. GVVCCGFFFLVV  0.525 ± 0.028
39. IIAGVWFLEILG  0.525 ± 0.009
40. GVMICLDLLLSV  0.521 ± 0.021
41. IGILVTAVPVFD  0.518 ± 0.0058
42. FSFSFYFALASF  0.514 ± 0.0099
43. FVFLVLGPYAMF  0.512 ± 0.013
44. FYAAILCLLFSC  0.512 ± 0.014
45. ILAVMFEIYAIL  0.5124 ± 0.0015
46. GCSVSLCCVFVV  0.503 ± 0.021
47. GQFVISVRFLYE  0.503 ± 0.044
48. GCVGLSFCVWVG  0.502 ± 0.02
49. FRFYCGLVIANV  0.484 ± 0.029
50. FVFCGVVFLFLL  0.467 ± 0.0057
51. ICIFWLITGLWL  0.459 ± 0.026
52. GRVETIEFLFLR  0.4335 ± 0.0015
53. GFSFFFIFWFFF  0.422 ± 0.011
54. GLCGVVVGCWVR  0.417 ± 0.017
55. IVVWCGIRYSIR  0.415 ± 0.055
56. GFVVYLLLSYLF  0.413 ± 0.035
57. FSCLCLCVATSG  0.396 ± 0.056
58. GHFILFWVFCFM  0.39 ± 0.014
59. GVLTVVLQVGVV  0.378 ± 0.053
60. GFVCFIHLFLCF  0.365 ± 0.011
61. IFRVTGFPIYIF  0.36 ± 0.024
62. GGVVLVVVFCCV  0.34 ± 0.02
63. FVLFCWFFCIVW  0.326 ± 0.029
64. ILCYVWLVFSGF  0.311 ± 0.019
65. GLFFLCLLSMCF  0.303 ± 0.021
66. FTFLFPLRLLPL  0.295 ± 0.025
67. GTIFLIRVLLFG  0.284 ± 0.026
68. HRLQFKGYPICA  0.255 ± 0.067
69. IIGCIAICLMVN  0.214 ± 0.25
70. GEVLWAVLLVSC  0.208 ± 0.016
71. FVFIFIRVFFFR  0.207 ± 0.024
72. FVSFFRWLLVSI  0.201 ± 0.04
73. ISTRLALCACVC  0.18 ± 0.0098
74. GFFCFLYFVVMF  0.1695 ± 0.0013
75. FVGVLVLCVCRC  0.137 ± 0.015
76. GCLFASWPLAVC  0.109 ± 0.0041
77. GWCLLRVLVLVW  0.043 ± 0.0082
78. FSFSCFFFVLFV  0.0424 ± 0.002
